Here are results for ten molecules from patent US20060121042A1 (AstraZeneca / MedImmune, published 2006).

For orientation: Kd means the constant that tells how readily two partners part at equilibrium. Broadly, the koff is the first-order rate constant of dissociation. Low readings indicate a long-lived complex, high ones a short-lived complex. In general, kon refers to the rate constant with which the complex forms. A low value points to slower complex formation.

For assay [1], the target named is T1, hEphA2 (human, UniProt P29317).
T1 construct: also called human EphA2
Briefly: ELISA.

The target in assay [2] is T2, r murine EphA3 (mouse, UniProt P29319).
T2 construct: recombinant Fc fusion (R&D Systems); also called rmuEphA3-Fc; mEphA3
T2 sequence (receptor-Fc fusion, looked up): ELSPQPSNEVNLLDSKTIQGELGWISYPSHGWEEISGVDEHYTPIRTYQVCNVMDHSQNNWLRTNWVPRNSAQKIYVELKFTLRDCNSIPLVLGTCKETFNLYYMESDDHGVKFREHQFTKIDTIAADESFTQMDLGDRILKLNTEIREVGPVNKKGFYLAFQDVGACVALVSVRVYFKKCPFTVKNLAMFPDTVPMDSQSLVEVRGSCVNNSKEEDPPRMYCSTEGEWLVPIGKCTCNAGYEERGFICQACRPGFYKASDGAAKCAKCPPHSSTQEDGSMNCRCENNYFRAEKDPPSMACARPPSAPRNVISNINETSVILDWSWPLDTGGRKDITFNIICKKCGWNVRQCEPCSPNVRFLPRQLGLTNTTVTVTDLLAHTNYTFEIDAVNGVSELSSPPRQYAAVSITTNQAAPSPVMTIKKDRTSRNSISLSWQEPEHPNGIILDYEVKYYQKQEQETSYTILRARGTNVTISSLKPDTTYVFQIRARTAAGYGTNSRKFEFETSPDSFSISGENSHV
The assay is described as follows: activity ELISA, Fab on coated antigen. How it is done: (§1) More precisely, Nunc Maxisorp plates were coated with the following rEphA proteins: rhuEphAl-Fc, rmuEphA2-Fc, rmuEphA3-Fc, rmuEphA4-Fc, rratEphA5-Fc, rmuEphA6-Fc, rmuEphA7-Fc, rEphA8; all at 0.5 μg/well (all R&D Systems) rhuEphA2-Fc; 0.5 μg/well, and rhuEphA4-His; 0.1 μg/well (both produced at MedImmune, Inc.). Plates were blocked with 3% BSA+0.1% Tween20 for 2 h. […] Incubation with a goat anti-human kappa horseradish peroxydase (HRP) conjugate then followed. HRP activity was detected with TMB substrate and the reaction quenched with 0.2 M H₂SO₄. Plates were read at 450 nm. Data was analyzed by normalizing Fab concentrations to the corresponding activity data (see FIGS. 10B-10H).
(ELISA stands for enzyme-linked immunosorbent assay.)

For assay [3], the target named is T3, r murine EphA4 (mouse, UniProt Q03137).
T3 construct: recombinant Fc fusion (R&D Systems); also called rmuEphA4-Fc; mEphA4
The assay is described as follows: activity ELISA, Fab on coated antigen. How it is done: as §1

The target in assay [4] is T4, r murine EphA7 (mouse, UniProt Q61772).
T4 construct: recombinant Fc fusion (R&D Systems); also called rmuEphA7-Fc; mEphA7
T4 sequence (receptor-Fc fusion, looked up): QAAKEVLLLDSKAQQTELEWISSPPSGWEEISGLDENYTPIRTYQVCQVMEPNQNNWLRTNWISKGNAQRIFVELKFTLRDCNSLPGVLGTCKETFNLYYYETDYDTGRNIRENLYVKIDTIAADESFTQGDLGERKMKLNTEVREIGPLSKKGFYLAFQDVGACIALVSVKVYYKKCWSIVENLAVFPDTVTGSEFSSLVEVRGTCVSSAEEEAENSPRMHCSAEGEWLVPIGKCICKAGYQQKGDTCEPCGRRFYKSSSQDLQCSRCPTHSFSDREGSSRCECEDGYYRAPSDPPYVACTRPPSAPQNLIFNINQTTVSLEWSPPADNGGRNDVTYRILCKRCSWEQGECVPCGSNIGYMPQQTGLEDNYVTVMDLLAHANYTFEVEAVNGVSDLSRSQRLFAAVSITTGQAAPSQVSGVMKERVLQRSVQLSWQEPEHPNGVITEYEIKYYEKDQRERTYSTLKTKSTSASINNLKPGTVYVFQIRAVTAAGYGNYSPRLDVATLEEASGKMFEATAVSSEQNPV
The assay is described as follows: activity ELISA, Fab on coated antigen. How it is done:
as §1

The target in assay [5] is T3, r murine EphA4. Briefly: activity ELISA, IgG on coated antigen. On the procedure: (§2) Secondary screening of IgG constructs of affinity optimized combinatorial variants with additional EphA receptors: With purified IgG constructs of the nine combinatorial variants, additional secondary screening assays were performed using the Activity ELISA (see above) and recombinant EphA receptor proteins. More precisely, Nunc Maxisorp plates were coated with the following rEphA proteins: rhuEphAl-Fc; 0.5 μg/well, rmuEphA2-Fc; 0.5 μg/well, rmuEphA3-Fc: 0.1 μg/well, rmuEphA4-Fc; 0.1 μg/well, rratEphA5-Fc; 0.5 μg/well, rmuEphA6-Fc; 0.5 μg/well, rmuEphA7-Fc; 0.1 μg/well, rEphA8; 0.2 μg/well (all R&D Systems), rhuEphA2-Fc; 0.5 μg/well, and rhuEphA4-His; 0.1 μg/well (both produced at MedImmune, Inc.). Plates were blocked with 3% BSA+0.1% Tween20 for 2 h. […] Incubation with a goat anti-human kappa horseradish peroxydase (HRP) conjugate then followed. HRP activity was detected with TMB substrate and the reaction quenched with 0.2 M H₂SO₄. Plates were read at 450 nm. Data was analyzed by normalizing Fab concentrations to the corresponding activity data (see FIGS. 12A-12J and 14).

In assay [6] the target is T4, r murine EphA7. Briefly: activity ELISA, IgG on coated antigen. On the procedure:
as §2

Assay [7] concerns the target T5, Human EphA4-Fc fusion protein (human, UniProt P54764 20-547).
T5 construct: not shown: Fc portion of a human IgG1
Briefly: BIAcore, IgG immobilized on the sensor chip, EphA4-Fc as analyte. On the procedure:
(§3) FIG. 15A-15B. […] Binding affinities were measured using the BIAcore assay. […] Variant kinetic measurements for human EphA4 and were obtained using BIAcore with immobilized variant antibodies and human EphA4-Fc and EphA4-His as analytes.
A general note: In SPR one partner is held on a chip, and binding of the other changes the refractive index at the surface.

Assay [8] deals with T6, Human EphA4-His fusion protein (human, UniProt P54764 20-547).
T6 construct: also called rhuEphA4-His; not shown: Histidine tag
Briefly: BIAcore, IgG immobilized on the sensor chip, EphA4-his as analyte. On the procedure: as §3

For assay [9], the target named is T7, mEphA4 (mouse, UniProt Q03137).
T7 construct: part of an Fc fusion; also called rmuEphA4-Fc
The assay is described as follows: ELISA, receptor coated on the plate, purified IgG, anti-human kappa-HRP. On the procedure:
as §2

Assay [10] concerns the target T8, mEphA7 (mouse, UniProt Q61772).
T8 construct: part of an Fc fusion; also called rmuEphA7-Fc
T8 sequence (receptor-Fc fusion, looked up): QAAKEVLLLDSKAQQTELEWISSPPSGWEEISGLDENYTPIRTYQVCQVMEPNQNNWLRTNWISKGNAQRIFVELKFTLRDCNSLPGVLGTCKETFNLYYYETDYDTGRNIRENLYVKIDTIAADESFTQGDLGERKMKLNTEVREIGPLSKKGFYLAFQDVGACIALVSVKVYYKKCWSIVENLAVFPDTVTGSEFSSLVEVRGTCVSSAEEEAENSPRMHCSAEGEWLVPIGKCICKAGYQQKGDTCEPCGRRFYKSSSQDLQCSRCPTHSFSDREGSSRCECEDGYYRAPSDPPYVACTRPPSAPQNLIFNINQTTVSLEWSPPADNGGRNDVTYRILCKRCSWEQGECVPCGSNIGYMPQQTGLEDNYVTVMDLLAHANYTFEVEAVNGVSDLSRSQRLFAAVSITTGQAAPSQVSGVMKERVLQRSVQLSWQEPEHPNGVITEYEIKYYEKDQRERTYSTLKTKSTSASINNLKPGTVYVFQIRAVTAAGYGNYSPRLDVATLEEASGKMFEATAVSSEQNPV
The assay is described as above. How it is done:
as §2

T1 sequence (P29317 25-534 limits assumed): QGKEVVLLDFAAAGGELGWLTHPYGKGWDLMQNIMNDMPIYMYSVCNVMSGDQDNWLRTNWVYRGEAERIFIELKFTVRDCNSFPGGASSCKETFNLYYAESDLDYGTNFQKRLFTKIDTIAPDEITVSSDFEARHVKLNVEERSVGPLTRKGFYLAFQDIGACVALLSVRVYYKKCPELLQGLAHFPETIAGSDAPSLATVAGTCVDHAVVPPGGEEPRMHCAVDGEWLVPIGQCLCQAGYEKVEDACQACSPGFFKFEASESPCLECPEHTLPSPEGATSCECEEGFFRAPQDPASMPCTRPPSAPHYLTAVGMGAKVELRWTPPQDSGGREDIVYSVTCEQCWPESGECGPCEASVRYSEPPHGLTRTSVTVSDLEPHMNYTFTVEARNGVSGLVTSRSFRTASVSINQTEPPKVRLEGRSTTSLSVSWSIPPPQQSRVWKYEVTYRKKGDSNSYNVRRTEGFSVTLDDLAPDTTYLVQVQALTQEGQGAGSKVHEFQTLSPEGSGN
T5 sequence (P54764 20-547): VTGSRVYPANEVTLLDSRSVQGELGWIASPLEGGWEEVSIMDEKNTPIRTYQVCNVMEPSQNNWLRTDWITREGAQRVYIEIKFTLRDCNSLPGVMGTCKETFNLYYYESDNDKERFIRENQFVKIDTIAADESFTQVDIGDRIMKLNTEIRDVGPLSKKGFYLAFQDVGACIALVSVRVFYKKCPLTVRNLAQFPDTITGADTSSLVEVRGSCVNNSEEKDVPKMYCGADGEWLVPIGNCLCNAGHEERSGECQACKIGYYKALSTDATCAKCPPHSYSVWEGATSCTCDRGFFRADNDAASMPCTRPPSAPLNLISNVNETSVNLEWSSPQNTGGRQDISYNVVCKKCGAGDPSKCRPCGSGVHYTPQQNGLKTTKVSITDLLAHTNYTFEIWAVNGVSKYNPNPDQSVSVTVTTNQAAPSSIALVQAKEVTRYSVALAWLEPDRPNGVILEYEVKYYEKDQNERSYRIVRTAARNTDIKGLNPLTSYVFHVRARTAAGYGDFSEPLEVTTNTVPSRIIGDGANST
T6 sequence (P54764 20-547): as above
T3 sequence (Q03137 20-547 limits assumed): as the sequence (P54764 20-547) above, with P59A, N121S, V124G, R250Q, S251N, T270S, K378R, N406S counted along it
T7 sequence (Q03137 20-547 limits assumed): as the sequence (P54764 20-547) above, with P59A, N121S, V124G, R250Q, S251N, T270S, K378R, N406S counted along it

B1: 12G3H11 (antibody, V domains shown)
VH: QMQLVQSGPEVKKPGTSVKVSCKASGFTFDDYSMNWVRQARGQRLEWIGFIRNKANDYTTEYADSVKGRVTITRDMSTSTAYMELSSLRSEDTAVYYCARYPRHHAMDSWGQGTSVTVSS
VL: DIQMTQSPSSLSASVGDRVTITCRASQSISNNLHWYQQKPGKAPKLLIKYAFQSISGVPSRFSGSGSGTDFTFTISSLQPEDFATYYCQQANSWPLTFGGGTKVEIK
For B1, in assay [1], the “ELISA O.D. value” came to 0.849.

B2: 4H5 (antibody, V domains shown)
VH: QVQLLESGGGLVQPGGSLRLSCAASGFTFSSYTMSWVRQAPGQALEWMGTISSGGTYTYYPDSVKGRFTISRDNAKNSLYLQMNSLRAEDTAVYYCAREAIFTYWGRGTLVTVSS
VL: DIQLTQSPSSLSASVGDRVTITCKASQDINNYLSWYQQKPGQAPRLLIYRANRLVDGVPDRFSGSGYGTDFTLTINNIESEDAAYYFCLKYDVFPYTFGQGTKVEIK
As to B2, the “ELISA O.D. value” in assay [1] came to 0.724.

B3: 6B7 Fab (affinity optimized combinatorial variant of Fab20) (Fab, V domains shown)
VH: QVQLLQSGAEVKKPGASVKVPCKASGYTFTSRAMSWVRQAPGQGLEWMGWINTNTGNPTYAQGFTGRFVFSLDTSVSTAYLQISSLKAEDTAVYYCARVRFTVYGDGMDVWGQGTLVTVSS
VL: EIVLTQSPATLSVSPGERATLSCRASQSVSSNPAWYQQKPGQAPRLLIYGASTRATGIPDRFSASGSGTDFTLTISRVEPEDFAVYYCQQYGPSWTFGQGTKVEIK
Consider B3, for which the binding result in assay [2], in assay [3] and in assay [4] was “binds” throughout.

B4: 1D11 IgG1 (affinity optimized combinatorial variant of mAb GEA44 in human IgG1 format) (antibody, V domains shown)
VH: QVQLLQSGAEVKKPGASVKVPCKASGYTFTSRAMSWVRQAPGQGLEWMGWINTNTGNPTYAQGFTGRFVFSLDTSVSTAYLQISSLKAEDTAVYYCARVRTTVYGDNMDVWGQGTLVTVSS
VL: EIVLTQSPATLSVSPGERATLSCRASQSVSSNLPWYQQKPGQAPRLLIYGASTRATGIPDRFSASGSGTDFTLTISRVEPEDFAVYYCQQYGPSWTFGQGTKVEIK
As for B4, the binding result in assay [5], in [6], in assay [9] and in assay [10] was “binds” throughout. Further, the equilibrium dissociation constant (Kd) in assay [7] is 176 pM; in [8], 8800 pM. In addition, the values for the off-rate constant (koff) in assay [7] and in assay [8] were 6.15e-05 s⁻¹ and 0.000984 s⁻¹, respectively. For the same molecule, the kon in assay [7] stood at 350000 M⁻¹ s⁻¹; in assay [8], 112000 M⁻¹ s⁻¹.

B5: 1D11 Fab (affinity optimized combinatorial variant of Fab20) (Fab, V domains shown)
VH: QVQLLQSGAEVKKPGASVKVPCKASGYTFTSRAMSWVRQAPGQGLEWMGWINTNTGNPTYAQGFTGRFVFSLDTSVSTAYLQISSLKAEDTAVYYCARVRTTVYGDNMDVWGQGTLVTVSS
VL: EIVLTQSPATLSVSPGERATLSCRASQSVSSNLPWYQQKPGQAPRLLIYGASTRATGIPDRFSASGSGTDFTLTISRVEPEDFAVYYCQQYGPSWTFGQGTKVEIK
For B5, the binding result in [3] and in [4] was “binds” throughout.

B6: 8B4 IgG1 (affinity optimized combinatorial variant of mAb GEA44 in human IgG1 format) (antibody, V domains shown)
VH: QVQLLQSGAEVKKPGASVKVPCKASGYTFTSRAMSWVRQAPGQGLEWMGWINTNTGNPTYAQGFTGRFVFSLDTSVSTAYLQISSLKAEDTAVYYCARVRLTVYGDGMDVWGQGTLVTVSS
VL: EIVLTQSPATLSVSPGERATLSCRASQSVSSNPAWYQQKPGQAPRLLIYGLSTRATGIPDRFSASGSGTDFTLTISRVEPEDFAVYYCQQYGPSWTFGQGTKVEIK
With B6, in assay [7], the affinity, expressed as Kd, was 197 pM; the koff is 2.2e-05 s⁻¹; the kon amounted to 112000 M⁻¹ s⁻¹.

B7: 3C6 Fab (affinity optimized combinatorial variant of Fab20) (Fab, V domains shown)
VH: QVQLLQSGAEVKKPGASVKVPCKASGYTFTSRAMSWVRQAPGQGLEWMGWINTNTGNPTYAQGFTGRFVFSLDTSVSTAYLQISSLKAEDTAVYYCARVRLTVYGDGMDVWGQGTLVTVSS
VL: EIVLTQSPATLSVSPGERATLSCRASQSVSSNPPWYQQKPGQAPRLLIYGASTRATGIPDRFSASGSGTDFTLTISRVEPEDFAVYYCQQYGSSWTFGQGTKVEIK
With B7, the binding result in assay [3] and in assay [4] was “binds” throughout.

B8: 1A4 Fab (affinity optimized combinatorial variant of Fab20) (Fab, V domains shown)
VH: QVQLLQSGAEVKKPGASVKVPCKASGYTFTSRAMSWVRQAPGQGLEWMGWINTNTGNPTYAQGSTGRFVFSLDTSVSTAYLQISSLKAEDTAVYYCARVRFTVYGDGMDVWGQGTLVTVSS
VL: EIVLTQSPATLSVSPGERATLSCRASQSVSSNPAWYQQKPGQAPRLLIYGASTRATGIPDRFSASGSGTDFTLTISRVEPEDFAVYYCQQYGPSWTFGQGTKVEIK
As to B8, the binding result in [2], in assay [3] and in assay [4] was “binds” throughout.

B9: 1B10 Fab (affinity optimized combinatorial variant of Fab20) (Fab, V domains shown)
VH: QVQLLQSGAEVKKPGASVKVPCKASGYTFTSRAMSWVRQAPGQGLEWMGWINTNTGNPTYAQGFTGRFVFSLDTSVSTAYLQISSLKAEDTAVYYCARVRFTVYGDGMDVWGQGTLVTVSS
VL: EIVLTQSPATLSVSPGERATLSCRASQSVSSNPAWYQQKPGQAPRLLIYGASTWATGIPDRFSASGSGTDFTLTISRVEPEDFAVYYCQQYGPSWTFGQGTKVEIK
Turning to B9, the binding result in [3] and in assay [4] was “binds” throughout.

B10: EA5 (antibody, V domains shown)
VH: EVQLQQSGPELVKTGASVKISCKASGYSFTGYYMHWVKQSHGKSLEWIGYISCYNGVTSYNQKFKGKATFTVDTSSSTAYMQFNSLTSEDSAVYYCARSHAMDYWGQGTSVTVSS
VL: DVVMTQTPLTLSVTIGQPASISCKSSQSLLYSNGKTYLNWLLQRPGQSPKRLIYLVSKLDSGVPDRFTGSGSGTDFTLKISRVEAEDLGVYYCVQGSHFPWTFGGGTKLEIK
As to B10, in [1], the “ELISA O.D. value” was 0.131.
